Test results: article PMC4141210 (FEBS Open Bio, 2014)

B1: GST–NS2 (natural protein)
chain: MDPNTVSSFQDILLRMSKMQLESSSGDLNGMITQFESLKLYRDSLGEAVMRMGDLHSLQNRNEKWREQLGQKFEEIRWLIEEVRHKLKITENSFEQITFMQALHLLLEVEQEIRTFSFQLI
B2: GST–Hsc70 N384 (1–384 aa) (domain or fragment)
chain: not shown
B3: GST–Hsc70 N402 (1–402 aa) (domain or fragment)
chain: not shown
B4: His–M1 (influenza virus M1 protein, wild type) (natural protein)
chain: MSLLTEVETYVLSIIPSGPLKAEIAQRLEDVFAGKNTDLEVLMEWLKTRPILSPLTKGILGFVFTLTVPSERGLQRRRFVQNALNGNGDPNNMDKAVKLYRKLKREITFHGAKEISLSYSAGALASCMGLIYNRMGAVTTEVAFGLVCATCEQIADSQHRSHRQMVTTTNPLIRHENRMVLASTTAKAMEQMAGSSEQAAEAMEVASQARQMVQAMRTIGTHPSSSAGLKNDLLENLQAYQKRMGVQMQRFK

Experiments:
[1] = target: B4; assay: pull-down
[2] = target: B4; assay: far-Western, overlay or dot blot
[3] = target: GST–Hsc70 wild-type (1–646 aa) (UniProt P11142 1-646); assay: pull-down
Sequence of GST–Hsc70 wild-type (1–646 aa) (P11142 whole entry, the tested form may be a part): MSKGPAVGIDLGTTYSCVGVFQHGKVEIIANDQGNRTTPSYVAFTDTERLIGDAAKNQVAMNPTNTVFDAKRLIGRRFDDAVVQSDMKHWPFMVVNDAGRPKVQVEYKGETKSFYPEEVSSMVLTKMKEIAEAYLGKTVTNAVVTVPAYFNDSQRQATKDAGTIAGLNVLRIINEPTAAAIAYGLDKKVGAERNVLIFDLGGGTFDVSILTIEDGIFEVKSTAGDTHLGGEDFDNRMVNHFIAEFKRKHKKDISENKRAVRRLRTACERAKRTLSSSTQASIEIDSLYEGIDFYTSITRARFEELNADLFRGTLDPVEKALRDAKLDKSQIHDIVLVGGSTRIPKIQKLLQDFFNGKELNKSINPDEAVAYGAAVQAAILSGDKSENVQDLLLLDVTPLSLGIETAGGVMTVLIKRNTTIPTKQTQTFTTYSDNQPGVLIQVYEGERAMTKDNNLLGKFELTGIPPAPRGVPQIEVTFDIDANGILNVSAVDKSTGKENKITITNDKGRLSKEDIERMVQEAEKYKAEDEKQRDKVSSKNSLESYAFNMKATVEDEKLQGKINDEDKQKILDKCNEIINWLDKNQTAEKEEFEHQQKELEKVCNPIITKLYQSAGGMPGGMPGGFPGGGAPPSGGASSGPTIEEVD

Binder: B1
- Kd [1]: 6 µM

Binder: B2
- relative band intensity [2]: 0.26 relative (wild type = 1)

Binder: B3
- relative band intensity [2]: 0.71 relative (wild type = 1)

Binder: B4
- Kd [3]: 0.1 µM
